Experimental data from article PMC5177531 (2016).
Non-standard residues stand in square brackets, D forms with d. No end group written: not given here. *: point of attachment. NMeF = CN[C@@H](Cc1ccccc1)C(=O)O; NHCH2CH2OH = OCCN*

Biological target: T1, mDOR-1 (Mus musculus, UniProt P32300)
T1 chain: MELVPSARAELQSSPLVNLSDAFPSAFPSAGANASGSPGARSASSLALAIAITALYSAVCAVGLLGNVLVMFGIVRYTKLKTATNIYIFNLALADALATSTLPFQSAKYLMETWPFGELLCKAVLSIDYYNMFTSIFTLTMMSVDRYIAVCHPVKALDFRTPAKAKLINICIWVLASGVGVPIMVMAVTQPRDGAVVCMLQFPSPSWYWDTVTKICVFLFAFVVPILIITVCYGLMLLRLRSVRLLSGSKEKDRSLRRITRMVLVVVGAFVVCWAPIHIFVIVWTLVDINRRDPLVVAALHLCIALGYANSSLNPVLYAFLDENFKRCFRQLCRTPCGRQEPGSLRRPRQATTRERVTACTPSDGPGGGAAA
Assay: 125I-IBNtxA competition, CHO membranes

Ki: > 500 nM
B1: DAMGO (peptide)
chain: Y[dA]G[NMeF][NHCH2CH2OH]
